Measured values taken from publication PMC6188088.

Columns and labels:
[1] = molecular target: TnpA^IS1535 C-terminal domain (CTD), residues 51-193 (Mycobacterium tuberculosis); assay: crystal structure; TnpA^IS1535 CTD (51-193), hanging drop, 0.3 M sodium acetate pH 5.0, 1 mM TCEP mixed with 0.2 M sodium citrate + 20% PEG3350; 2.5 Å; one dimer in the asymmetric unit
[2] = molecular target: TnpA^IS1535 single-cysteine mutant Cys162 (three native cysteines replaced with serines) (Mycobacterium tuberculosis); assay: cross-linking; disulfide cross-linking of cysteine-substituted TnpA^IS1535: oxidation with 0.2 mM diamide at 4°C overnight in 25 mM HEPES pH 7.5, 1 M Na acetate, 20% glycerol; non-reducing SDS-PAGE

Substance | stoichiometry N [1] | percent disulfide-linked dimers [2] [%]
TnpA^IS1535 C-terminal domain (CTD), residues 51-193 (domain or fragment) | 2 | –
TnpA^IS1535 single-cysteine mutant Cys162 (three native cysteines replaced with serines) (enzyme) | – | 40
